Source: patent US20250011363A1, “OPTIMIZED SHORTENED PEPTIDE THAT BINDS TO ACETYLCHOLINE RECEPTOR, AND USE THEREOF” (SKINMED CO., LTD., priority 2021, published 2025)

Biological target: acetylcholine receptor (Homo sapiens, UniProt P02708)
Assay: SPR binding affinity (RU) of optimized 5mer/6mer/7mer peptides, Examples 6-7
Settings: SPR, peptides tested at 10 μM
Procedure: Based on the frequencies of occurrence of the top 7 amino acids from Table 7 in Example 5, 600 peptides comprising these amino acids (top combinations) and those comprising the 13 less frequently occurring amino acids (bottom combinations) were synthesized for each series of 5mer, 6mer-1, and 6mer-2. The binding affinity of each sequence for the acetylcholine receptor was measured using Surface Plasmon Resonance (SPR) analysis method. The peptides were tested at a concentration of 10 μM. Additionally, the average binding affinities of the top and bottom combinations in each series are depicted in FIGS. 5-7.
Representative peptides identified in Example 6, two in each library, including 5mers (73, 311) and 6mers-1 (43, 210) and 6mers-2 (136, 233), were compared with the pre-optimized 6mer, 5mer-ND, and Synake.

[1] = 5mer Top sequence (top combinations)

Sequence of acetylcholine receptor (P02708 21-457): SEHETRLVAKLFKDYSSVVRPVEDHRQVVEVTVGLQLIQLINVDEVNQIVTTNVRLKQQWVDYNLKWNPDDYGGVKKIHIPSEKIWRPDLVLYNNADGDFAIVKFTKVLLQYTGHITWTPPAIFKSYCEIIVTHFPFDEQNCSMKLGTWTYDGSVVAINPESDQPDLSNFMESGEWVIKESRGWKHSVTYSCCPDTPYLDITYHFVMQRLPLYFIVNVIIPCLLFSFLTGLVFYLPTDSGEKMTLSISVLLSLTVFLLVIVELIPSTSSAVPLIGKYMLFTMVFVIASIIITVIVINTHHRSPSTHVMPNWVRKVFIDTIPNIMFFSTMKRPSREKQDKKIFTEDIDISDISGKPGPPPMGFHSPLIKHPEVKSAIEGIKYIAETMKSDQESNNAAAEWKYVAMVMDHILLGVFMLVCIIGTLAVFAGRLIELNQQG

| Substance | Binding affinity (5mer Top sequence) [Ru] | Binding affinity [1] [Ru] |
| --- | --- | --- |
| 5mer-141 (RWQQR) | 50 |  |
| 5mer-142 (RQYSR) | 52 |  |
| 5mer-143 (KGQQR) | 64 |  |
| 5mer-144 (KRFSK) | 58 |  |
| 5mer-145 (RSFSK) | 62 |  |
| 5mer-146 (RWFTK) | 52 |  |
| 5mer-147 (RRYQK) | 66 |  |
| 5mer-148 (RSQTK) | 50 |  |
| 5mer-149 (KQFLR) | 80 |  |
| 5mer-150 (RVRTR) | 64 |  |
| 5mer-151 (RVFTK) | 66 |  |
| 5mer-152 (RRRRR) | 56 |  |
| 5mer-153 (RSIQK) | 72 |  |
| 5mer-154 (RSITR) | 54 |  |
| 5mer-155 (KRYLR) | 57 |  |
| 5mer-156 (KGLRK) | 85 |  |
| 5mer-157 (KGRCR) | 78 |  |
| 5mer-158 (RWQTK) | 65 |  |
| 5mer-159 (RGQRR) | 73 |  |
| 5mer-160 (RSIRR) | 53 |  |
| 5mer-161 (KWVTK) | 52 |  |
| 5mer-162 (RGYQR) | 51 |  |
| 5mer-163 (KSLCK) | 61 |  |

| Substance | Binding affinity (5mer Top sequence) [Ru] | Binding affinity [1] [Ru] |
| --- | --- | --- |
| 5mer-164 (KSICK) | 54 |  |
| 5mer-165 (KWRSK) | 56 |  |
| 5mer-166 (KSFQR) | 55 |  |
| 5mer-167 (KQFRK) | 64 |  |
| 5mer-168 (KLFSK) | 84 |  |
| 5mer-169 (RWYRK) | 61 |  |
| 5mer-170 (RLICK) | 62 |  |
| 5mer-171 (KSIQR) | 55 |  |
| 5mer-172 (RSRRR) | 82 |  |
| 5mer-173 (RSVSR) | 59 |  |
| 5mer-174 (KGRQR) | 59 |  |
| 5mer-175 (RWQLK) | 63 |  |
| 5mer-176 (RVLYK) | 52 |  |
| 5mer-177 (RWVRK) | 77 |  |
| 5mer-178 (RRVLK) | 87 |  |
| 5mer-179 (RLYTK) | 55 |  |
| 5mer-180 (KQRYR) | 74 |  |
| 5mer-181 (RSLLK) | 72 |  |
| 5mer-182 (RVLSK) | 70 |  |
| 5mer-183 (KRVYR) | 64 |  |
| 5mer-184 (KLQCR) | 68 |  |
| 5mer-185 (RRYRR) | 86 |  |
| 5mer-186 (KRLQR) | 64 |  |

| Substance | Binding affinity (5mer Top sequence) [Ru] | Binding affinity [1] [Ru] |
| --- | --- | --- |
| 5mer-187 (RWVCR) | 74 |  |
| 5mer-188 (KWFSK) | 82 |  |
| 5mer-189 (RLLQK) | 65 |  |
| 5mer-190 (RWRSR) | 84 |  |
| 5mer-191 (RVRCR) | 75 |  |
| 5mer-192 (KSFRK) | 75 |  |
| 5mer-193 (RVIRK) | 80 |  |
| 5mer-194 (KWQSK) | 84 |  |
| 5mer-195 (KVVSR) | 82 |  |
| 5mer-196 (RSYYR) | 69 |  |
| 5mer-197 (RSRQK) | 68 |  |
| 5mer-198 (KLISR) | 74 |  |
| 5mer-199 (KRYQR) | 84 |  |
| 5mer-200 (KRVRR) | 55 |  |
| 5mer-201 (RWIYR) | 62 |  |
| 5mer-202 (KWYRR) | 65 |  |
| 5mer-203 (RQLTR) | 78 |  |
| 5mer-204 (RQFQR) | 84 |  |
| 5mer-205 (RWYYR) | 75 |  |
| 5mer-206 (KLQLR) | 57 |  |
| 5mer-207 (KQVRR) | 72 |  |
| 5mer-208 (KLICR) | 80 |  |
| 5mer-209 (RGVRR) | 78 |  |

| Substance | Binding affinity (5mer Top sequence) [Ru] | Binding affinity [1] [Ru] |
| --- | --- | --- |
| 5mer-210 (KVYYR) | 67 |  |
| 5mer-211 (RLYYR) | 73 |  |
| 5mer-212 (KQQYK) |  | 64 |
| 5mer-213 (RQYTK) |  | 83 |
| 5mer-214 (KQQCK) |  | 79 |
| 5mer-215 (RQYRR) |  | 79 |
| 5mer-216 (KWVRR) |  | 56 |
| 5mer-217 (KLQRR) |  | 72 |
| 5mer-218 (KVQYK) |  | 80 |
| 5mer-219 (KQYTR) |  | 55 |
| 5mer-220 (KRILR) |  | 81 |
| 5mer-221 (RGRTR) |  | 58 |
| 5mer-222 (KWLLR) |  | 86 |
| 5mer-223 (KQVRK) |  | 61 |
| 5mer-224 (RLQRR) |  | 67 |
| 5mer-225 (KRQQK) |  | 51 |
| 5mer-226 (RRYTR) |  | 60 |
| 5mer-227 (RRQQR) |  | 84 |
| 5mer-228 (KRFLK) |  | 53 |
| 5mer-229 (KGLTR) |  | 84 |
| 5mer-230 (KVLCR) |  | 67 |
| 5mer-231 (KGLLK) |  | 60 |
| 5mer-232 (KWYTR) |  | 71 |

| Substance | Binding affinity (5mer Top sequence) [Ru] | Binding affinity [1] [Ru] |
| --- | --- | --- |
| 5mer-233 (RVYYK) |  | 84 |
| 5mer-234 (RQYCR) |  | 62 |
| 5mer-235 (KGYSK) |  | 70 |
| 5mer-236 (KRRCK) |  | 81 |
| 5mer-237 (RGLRK) |  | 77 |
| 5mer-238 (KQVLK) |  | 58 |
| 5mer-239 (KRLYR) |  | 61 |
| 5mer-240 (KWRYR) |  | 51 |
| 5mer-241 (KVRCR) |  | 51 |
| 5mer-242 (RGYTK) |  | 64 |
| 5mer-243 (KLLSK) |  | 51 |
| 5mer-244 (KSVSK) |  | 78 |
| 5mer-245 (RQRSK) |  | 62 |
| 5mer-246 (KSFTR) |  | 60 |
| 5mer-247 (RWYCR) |  | 80 |
| 5mer-248 (RWYLK) |  | 63 |
| 5mer-249 (RSYCR) |  | 52 |
| 5mer-250 (RQFSR) |  | 76 |
| 5mer-251 (KRISK) |  | 70 |
| 5mer-252 (KQYRK) |  | 53 |
| 5mer-253 (RSLYR) |  | 75 |
| 5mer-254 (KLLRK) |  | 87 |
| 5mer-255 (KQRTR) |  | 82 |

| Substance | Binding affinity (5mer Top sequence) [Ru] | Binding affinity [1] [Ru] |
| --- | --- | --- |
| 5mer-256 (RGVCK) |  | 60 |
| 5mer-257 (RQFTR) |  | 85 |
| 5mer-258 (KRQYK) |  | 84 |
| 5mer-259 (RLIRK) |  | 71 |
| 5mer-260 (KVYRR) |  | 57 |
| 5mer-261 (RRVLR) |  | 59 |
| 5mer-262 (KSRCR) |  | 59 |
| 5mer-263 (KQVTR) |  | 80 |
| 5mer-264 (KWYRK) |  | 50 |
| 5mer-265 (RWQCR) |  | 77 |
| 5mer-266 (KSYQK) |  | 66 |
| 5mer-267 (KRLLK) |  | 66 |
| 5mer-268 (KRYCK) |  | 54 |
| 5mer-269 (RLFLR) |  | 85 |
| 5mer-270 (RSQQR) |  | 52 |
| 5mer-271 (RGRYR) |  | 68 |
| 5mer-272 (KGYQR) |  | 83 |
| 5mer-273 (RVQSK) |  | 82 |
| 5mer-274 (RQVRK) |  | 62 |
| 5mer-275 (KVYTR) |  | 64 |
| 5mer-276 (RSLRR) |  | 70 |
